Data taken from article PMC8085985.

Target: Fervidobacterium islandicum AW‐1 SufS family cysteine desulfurase (FiSufS) (Fervidobacterium islandicum AW-1)
Test: SEC

Substance: Fervidobacterium islandicum AW‐1 SufS family cysteine desulfurase (FiSufS) (enzyme)
- stoichiometry N: 2
